Results: US8512991B2, “Beta 1,4-galactosyltransferases with altered donor and acceptor specificities, compositions and methods of use” (The United States of America, as represented by the …, priority 2007, dated 2013)
Positions count from the first letter of the chain named. Numbers in names are those of the source. Like-named read-outs stand apart in the source and are kept apart here.

B1: b4Gal-T1Y289L: single mutant beta4Gal-T1, Tyr289 to Leu (bovine numbering), enlarged binding pocket with GalNAc-T activity (protein, UniProt P08037 1-402, looked up, variant Y289L)
chain: MKFREPLLGGSAAMPGASLQRACRLLVAVCALHLGVTLVYYLAGRDLRRLPQLVGVHPPLQGSSHGAAAIGQPSGELRLRGVAPPPPLQNSSKPRSRAPSNLDAYSHPGPGPGPGSNLTSAPVPSTTTRSLTACPEESPLLVGPMLIEFNIPVDLKLVEQQNPKVKLGGRYTPMDCISPHKVAIIIPFRNRQEHLKYWLYYLHPILQRQQLDYGIYVINQAGESMFNRAKLLNVGFKEALKDYDYNCFVFSDVDLIPMNDHNTYRCFSQPRHISVAMDKFGFSLPYVQLFGGVSALSKQQFLSINGFPNNYWGWGGEDDDIYNRLAFRGMSVSRPNAVIGKCRMIRHSRDKKNEPNPQRFDRIAHTKETMLSDGLNSLTYMVLEVQRYPLYTKITVDIGTPS
B2: b4Gal-T1-M340H-Y285L: double mutant human beta 1,4-galactosyltransferase I, Tyr285Leu and Met340His, transfers GalNAc or modified galactose with magnesium (protein, UniProt P15291 1-398, looked up, variant M340H Y285L)
chain: MRLREPLLSGSAAMPGASLQRACRLLVAVCALHLGVTLVYYLAGRDLSRLPQLVGVSTPLQGGSNSAAAIGQSSGELRTGGARPPPPLGASSQPRPGGDSSPVVDSGPGPASNLTSVPVPHTTALSLPACPEESPLLVGPMLIEFNMPVDLELVAKQNPNVKMGGRYAPRDCVSPHKVAIIIPFRNRQEHLKYWLYYLHPVLQRQQLDYGIYVINQAGDTIFNRAKLLNVGFQEALKDYDYTCFVFSDVDLIPMNDHNAYRCFSQPRHISVAMDKFGFSLPYVQLFGGVSALSKQQFLTINGFPNNYWGWGGEDDDIFNRLVFRGMSISRPNAVVGRCRHIRHSRDKKNEPNPQRFDRIAHTKETMLSDGLNSLTYQVLDVQRYPLYTQITVDIGTPS
B3: b4Gal-T1 Y285L: single mutant human beta4Gal-T1, Tyr285 to Leu, from which the double mutant was constructed (protein, UniProt P15291 1-398, looked up, variant Y285L)
chain: B2 chain with H340M
B4: b4Gal-T1-M340H: single mutant human beta4Gal-T1, Met340 to His, from which the double mutant was constructed (protein, UniProt P15291 1-398, looked up, variant M340H)
chain: B2 chain with L285Y

Experiments:
[1] = Ramakrishnan et al. 2002, 2004, cited from earlier work
[2] = Transfer of GalNAc or 2-keto-galactose to heptasaccharide tetrapeptide, MALDI mass spectra (FIG. 1); type: biochemical
Description: Major peaks are annotated with the carbohydrate structure shown in the symbols for monosaccharides, according to the nomenclature adopted by the consortium for functional glycomics, (on the world wide web at functionalglycomics.org/static/consortium/). GlcNAc (squares), mannose (spheres).
The experiments shown in FIG. 1 were performed with the double mutant, b4Gal-T1_M340H_Y285L, which was constructed from the single mutants, b4Gal-T1_M340H and b4Gal-T1_Y285L. The b4Gal-T1-M340H single mutant requires Mg2+ for the transfer reaction, while the b4Gal-T1 Y285L single mutant requires Mn2+ for the transfer reaction. In FIGS. 1, (A), (B) and (C) show the MALDI mass spectra of glycans after the transfer of GalNAc (shown in B) or 2-keto-galactose (shown in C) to the sugar acceptor, heptasaccharide tetrapeptide (A), Arg-[GlcNAcβ1,2-Manα-1,6-(GlcNAcβ1,2-Manα1,3)-Manβ1,4-GlcNAcβ1,4-GlcNAcβ]-Asn-Glu-Gly, by the double mutant enzyme, b4Gal-T1M340H_Y285L. In FIG. 1, major peaks are annotated with the carbohydrate structure shown in the symbols for monosaccharides, according to the nomenclature adopted by the consortium for functional glycomics (publicly available on the world wide web at functional glycomics.org/static/consortium/).

[3] = Gal-T and GalNAc-T enzyme assay, specific activities of the catalytic domain (FIG. 2); type: biochemical; details: in the presence of magnesium; saturating substrates, 500 μM UDP-galactose or UDP-GalNAc, β-benzyl-GlcNAc 25 mM
Description: FIG. 2 is a graph showing specific activities of the catalytic domain of the human beta 4Gal-T1-M340H-Y285L. Reactions were performed under saturating conditions of all substrates. In these reactions the concentrations for the donors UDP-galactose or UDP-GalNAc was 500 μM and the acceptor β-benzyl-GlcNAc was at 25 mM.
The reactions were performed under saturating conditions of all substrates. […] This is in contrast to the wild type, which is not active (not able to transfer sugar) in the presence of magnesium.
Gal-T and GalNAc T enzyme assays are easily performed according to methods described in the art, for example US Published Application 20060084162. Protein concentrations are measured using the Bio-Rad protein assay kit, based on the method of Bradford and further verified on SDS gel. An in vitro assay procedure for the Gal-T1 has been reported previously (Ramakrishnan et al., J. Biol. Chem., 270, […] (2001)). The activities were measured using UDP-Gal or UDP-GalNAc as sugar nucleotide donors, and GlcNAc and Glc as the acceptor sugars. […] The column was washed successfully with 300, 400, and 500 µl of water, and the column flow-through was diluted with Biosafe scintillation fluid; radioactivity was measured with a Beckman counter. […]

Row | Molecule | beta 4GalNAc-T activity compared with beta 4Gal-T activity ([1]; listed as beta 4Gal-T1-Y289L) | beta 4GalNAc-T activity compared with beta 4Gal-T activity ([1]; listed as beta4Gal-T1-Y289L) | metal ion required for the transfer reaction (GalNAc or a modified sugar) [2] | activity (able to transfer sugar) of the catalytic domain [3] | transfer of GalNAc or a modified sugar (2-keto-galactose) to the sugar acceptor ([2]; in the presence of Mg2+, acceptor heptasaccharide tetrapeptide)
1 | B1 | exhibits both beta 4Gal-T and beta 4GalNAc-T activities | as efficient as its beta-1,4-galactosyltransferase (beta 4Gal-T) activity | require the presence of Mn2+ | – | –
2 | B2 | – | – | – | is active | transfer of GalNAc or a modified sugar
3 | B3 | – | – | requires Mn2+ | – | –
4 | B4 | – | – | requires Mg2+ | – | –
